Measured values published in patent WO2020135415A1 (dated 2020).

Key:
human PD-L1 protein = biological target: T1, human PD-L1 protein (human, UniProt Q9NZQ7 19-238, limits assumed); experiment: binding to human PD-L1 protein; method not stated
T1 construct: also called hPD-L1; huPD-L1

PD-L1 expressed by DC = experiment: cell-based or functional assay
PD-L1 expressed by DC, sequence (Q9NZQ7 whole entry): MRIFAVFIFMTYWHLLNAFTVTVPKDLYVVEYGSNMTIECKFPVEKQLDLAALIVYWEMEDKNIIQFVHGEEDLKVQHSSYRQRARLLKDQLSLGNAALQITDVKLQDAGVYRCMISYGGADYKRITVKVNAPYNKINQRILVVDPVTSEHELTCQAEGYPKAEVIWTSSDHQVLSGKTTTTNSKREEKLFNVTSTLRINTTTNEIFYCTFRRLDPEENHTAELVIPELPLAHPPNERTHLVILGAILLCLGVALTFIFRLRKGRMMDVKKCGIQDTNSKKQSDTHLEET

T1 sequence (Q9NZQ7 19-238 limits assumed): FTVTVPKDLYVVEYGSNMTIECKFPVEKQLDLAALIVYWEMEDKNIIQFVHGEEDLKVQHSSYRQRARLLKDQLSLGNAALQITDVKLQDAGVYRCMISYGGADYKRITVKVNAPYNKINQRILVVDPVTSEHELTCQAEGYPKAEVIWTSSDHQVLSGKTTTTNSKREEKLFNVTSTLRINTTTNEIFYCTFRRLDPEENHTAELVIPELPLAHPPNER

B1: hu5G11-hIgG1 (antibody, V domains shown)
VH: QITLKESGPTLVKPTQTLTLTCTVSGFSLSTYGVHWIRQPPGKALEWLGVIWRGVTTDYNAAFMSRLTITKDNSKNQVVLTMNNMDPVDTATYYCARLGFYAMDYWGQGTLVTVSS
VL: DIQMTQSPSSLSASVGDRVTITCKASQSVSNDVAWYQQKPGKAPKLLIYYAANRYTGVPDRFSGSGYGTDFTFTISSLQPEDIATYFCQQDYTSPYTFGQGTKLEIKR
EC50 (human PD-L1 protein): 0.0213 µg/mL
secretion of IFN-γ in MLR of CD4+:DC cells, EC50 (PD-L1 expressed by DC): 0.035 µg/mL
